Test in all cases: Kinase profiling (radiometric filter-binding)
What all share (type): biochemical

One data set addresses T1, NUAK1 (Homo sapiens, UniProt O60285).
T1 sequence (O60285 1-661): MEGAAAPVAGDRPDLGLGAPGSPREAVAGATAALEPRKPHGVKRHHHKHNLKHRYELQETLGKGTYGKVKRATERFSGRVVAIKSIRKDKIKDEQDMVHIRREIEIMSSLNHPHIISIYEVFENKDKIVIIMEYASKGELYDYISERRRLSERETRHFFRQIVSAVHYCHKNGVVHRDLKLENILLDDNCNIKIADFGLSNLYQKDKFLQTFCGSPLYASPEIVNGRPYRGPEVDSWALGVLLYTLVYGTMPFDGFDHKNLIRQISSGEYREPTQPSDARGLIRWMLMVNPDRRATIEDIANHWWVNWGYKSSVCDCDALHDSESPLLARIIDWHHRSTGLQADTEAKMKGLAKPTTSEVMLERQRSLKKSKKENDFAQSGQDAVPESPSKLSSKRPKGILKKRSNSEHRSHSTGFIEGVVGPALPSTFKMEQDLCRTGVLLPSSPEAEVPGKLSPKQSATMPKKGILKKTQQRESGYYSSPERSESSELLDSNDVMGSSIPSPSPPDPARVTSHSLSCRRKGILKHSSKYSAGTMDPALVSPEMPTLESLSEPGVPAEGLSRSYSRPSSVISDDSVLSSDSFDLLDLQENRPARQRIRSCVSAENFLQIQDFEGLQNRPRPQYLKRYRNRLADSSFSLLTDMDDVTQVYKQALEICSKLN
To be noted: NUAK1, 1 µM inhibitor; read-out: Residual activity, %. In a few lines: (§1)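 Activity remaining (% of control without inhibitor) at 1 µM final compound; human kinases, ATP ≤ KM, radiometric filter binding.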

A further data set concerns the target IRR (Homo sapiens, UniProt P14616). To be noted: 1 µM inhibitor, read-out: Residual activity, %. In a few lines:
as §1

Another data set has as its target Src (Homo sapiens, UniProt P12931). The settings on record: 1 µM inhibitor, read-out: Residual activity, %. The method in brief:
as §1

The target in a further data set is T2, EIF2AK3 (Homo sapiens, UniProt Q9NZJ5).
T2 sequence (Q9NZJ5 30-1116): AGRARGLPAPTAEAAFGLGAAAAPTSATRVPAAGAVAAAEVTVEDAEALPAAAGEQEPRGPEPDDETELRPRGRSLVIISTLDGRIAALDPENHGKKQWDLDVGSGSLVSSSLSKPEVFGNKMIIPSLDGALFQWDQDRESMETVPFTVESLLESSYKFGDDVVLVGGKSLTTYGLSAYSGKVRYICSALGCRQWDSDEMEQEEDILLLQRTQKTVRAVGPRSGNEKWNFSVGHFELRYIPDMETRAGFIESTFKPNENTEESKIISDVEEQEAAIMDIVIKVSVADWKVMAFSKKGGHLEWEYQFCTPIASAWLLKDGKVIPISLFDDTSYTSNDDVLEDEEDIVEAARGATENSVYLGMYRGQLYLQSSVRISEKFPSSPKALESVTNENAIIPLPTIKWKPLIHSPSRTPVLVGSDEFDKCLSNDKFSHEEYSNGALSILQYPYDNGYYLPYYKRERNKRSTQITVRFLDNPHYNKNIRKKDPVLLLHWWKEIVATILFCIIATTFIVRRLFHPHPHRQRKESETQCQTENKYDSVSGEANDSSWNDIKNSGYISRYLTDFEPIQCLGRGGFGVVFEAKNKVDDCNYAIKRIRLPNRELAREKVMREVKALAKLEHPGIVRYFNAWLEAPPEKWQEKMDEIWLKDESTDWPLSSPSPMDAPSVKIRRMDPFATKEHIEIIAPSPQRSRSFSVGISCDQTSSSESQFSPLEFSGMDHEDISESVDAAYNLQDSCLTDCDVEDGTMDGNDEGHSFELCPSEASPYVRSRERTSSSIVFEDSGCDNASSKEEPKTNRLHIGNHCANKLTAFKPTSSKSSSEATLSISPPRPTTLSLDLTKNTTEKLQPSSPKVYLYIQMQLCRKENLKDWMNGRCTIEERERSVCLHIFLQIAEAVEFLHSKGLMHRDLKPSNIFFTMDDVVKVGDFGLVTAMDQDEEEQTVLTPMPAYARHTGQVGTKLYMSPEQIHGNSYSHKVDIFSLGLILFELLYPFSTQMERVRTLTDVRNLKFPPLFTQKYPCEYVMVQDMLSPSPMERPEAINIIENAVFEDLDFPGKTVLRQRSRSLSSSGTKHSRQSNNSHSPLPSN
To be noted: EIF2AK3, 1 µM inhibitor; read-out: Residual activity, %. The method in brief: as §1

The target of the next data set is PIM2 (Homo sapiens, UniProt Q9P1W9). The settings on record: PIM2, 1 µM inhibitor; read-out: Residual activity, %. In a few lines:
as §1

The values that follow come from article PMC8307404, “Crystal Structure-Guided Design of Bisubstrate Inhibitors and Photoluminescent Probes for Protein Kinases of the PIM Family” (Molecules, 2021).

Square brackets hold non-standard residues; d marks the D form. Peptide text beside a SMILES is read from it. * marks the point of attachment. X3 = O=C(CCCCCNCc1nc2c(sc3cc(Br)cnc32)c(=O)[nH]1)*

Chain of IRR (P14616 27-1297): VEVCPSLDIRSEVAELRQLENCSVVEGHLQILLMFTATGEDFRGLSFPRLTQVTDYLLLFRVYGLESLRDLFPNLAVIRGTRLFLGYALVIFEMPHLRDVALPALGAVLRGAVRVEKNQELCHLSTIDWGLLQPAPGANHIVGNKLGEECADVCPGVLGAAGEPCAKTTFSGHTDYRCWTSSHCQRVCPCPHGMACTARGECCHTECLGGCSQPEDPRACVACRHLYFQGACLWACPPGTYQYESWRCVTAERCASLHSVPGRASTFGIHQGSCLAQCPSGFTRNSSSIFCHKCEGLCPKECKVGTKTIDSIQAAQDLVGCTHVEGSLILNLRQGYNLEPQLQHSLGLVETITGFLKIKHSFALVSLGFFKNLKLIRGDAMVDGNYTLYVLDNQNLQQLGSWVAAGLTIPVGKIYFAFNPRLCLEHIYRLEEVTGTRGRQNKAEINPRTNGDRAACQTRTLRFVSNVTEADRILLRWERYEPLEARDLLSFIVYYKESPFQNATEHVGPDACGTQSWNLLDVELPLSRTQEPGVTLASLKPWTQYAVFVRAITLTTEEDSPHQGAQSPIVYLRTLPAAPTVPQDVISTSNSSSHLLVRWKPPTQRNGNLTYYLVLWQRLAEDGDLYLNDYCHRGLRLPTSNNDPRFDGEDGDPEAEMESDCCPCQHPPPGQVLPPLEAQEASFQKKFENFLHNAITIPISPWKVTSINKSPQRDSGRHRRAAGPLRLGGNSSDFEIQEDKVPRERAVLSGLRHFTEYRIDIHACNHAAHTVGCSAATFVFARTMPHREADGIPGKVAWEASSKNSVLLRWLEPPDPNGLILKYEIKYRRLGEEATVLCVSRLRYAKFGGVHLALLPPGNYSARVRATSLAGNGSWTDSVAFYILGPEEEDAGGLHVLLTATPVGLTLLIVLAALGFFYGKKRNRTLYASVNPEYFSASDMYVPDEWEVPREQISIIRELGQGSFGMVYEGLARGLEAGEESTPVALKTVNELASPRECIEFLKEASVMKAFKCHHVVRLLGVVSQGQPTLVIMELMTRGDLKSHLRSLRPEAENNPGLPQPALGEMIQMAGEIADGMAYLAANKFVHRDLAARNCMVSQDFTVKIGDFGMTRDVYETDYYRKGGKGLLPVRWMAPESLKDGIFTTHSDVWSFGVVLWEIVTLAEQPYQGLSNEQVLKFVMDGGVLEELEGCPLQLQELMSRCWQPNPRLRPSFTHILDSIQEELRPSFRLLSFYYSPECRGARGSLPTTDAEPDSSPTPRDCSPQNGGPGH
Chain of PIM2 (Q9P1W9 whole entry): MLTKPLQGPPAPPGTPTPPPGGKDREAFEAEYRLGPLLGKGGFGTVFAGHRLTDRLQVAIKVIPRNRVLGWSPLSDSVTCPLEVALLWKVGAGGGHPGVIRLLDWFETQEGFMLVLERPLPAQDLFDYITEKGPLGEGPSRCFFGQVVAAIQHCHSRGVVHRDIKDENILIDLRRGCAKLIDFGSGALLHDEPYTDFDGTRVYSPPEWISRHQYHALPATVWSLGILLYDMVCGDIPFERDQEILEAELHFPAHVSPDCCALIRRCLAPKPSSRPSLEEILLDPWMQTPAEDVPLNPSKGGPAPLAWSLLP
Chain of Src (P12931 whole entry): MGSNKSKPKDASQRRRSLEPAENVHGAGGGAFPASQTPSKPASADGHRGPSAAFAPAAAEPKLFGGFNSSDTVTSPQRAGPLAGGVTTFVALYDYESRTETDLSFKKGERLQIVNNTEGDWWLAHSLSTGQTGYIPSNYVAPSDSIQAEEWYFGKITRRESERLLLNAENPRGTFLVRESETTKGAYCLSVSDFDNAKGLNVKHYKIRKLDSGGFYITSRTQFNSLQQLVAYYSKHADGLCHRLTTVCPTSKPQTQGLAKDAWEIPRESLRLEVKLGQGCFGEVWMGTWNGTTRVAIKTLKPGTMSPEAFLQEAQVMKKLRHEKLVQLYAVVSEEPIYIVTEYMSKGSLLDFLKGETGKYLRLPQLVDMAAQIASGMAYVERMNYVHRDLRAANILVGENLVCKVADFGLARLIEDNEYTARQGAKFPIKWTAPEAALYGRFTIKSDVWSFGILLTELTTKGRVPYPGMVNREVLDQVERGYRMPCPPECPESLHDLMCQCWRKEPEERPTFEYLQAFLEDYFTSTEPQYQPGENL

On to `N=C(N)NCCC[C@@H](NC(=O)CCCCCNCc1nc2c(sc3cc(Br)cnc32)c(=O)[nH]1)C(=O)N[C@H](CCCNC(=N)N)C(=O)N[C@H](CCCNC(=N)N)C(=O)N[C@H](CCCNC(=N)N)C(=O)N[C@H](CCCNC(=N)N)C(=O)N[C@H](CCCNC(=N)N)C(=O)N[C@H](CCCCN)C(N)=O` [ARC-3126, BPTP-Ahx-(D-Arg)6-D-Lys-NH2] (X3-[dR][dR][dR][dR][dR][dR][dK]-NH2), for which the remaining activity at 1 µM with NUAK1 amounted to 47 ± 7%; in the data set with IRR, 75 ± 4%; in the data set with Src, 103 ± 2%; with EIF2AK3 it was 60 ± 6%; in the data set with PIM2, 10%.
For `N=C(N)NCCC[C@@H](NC(=O)CNC(=O)[C@@H](CCCNC(=N)N)NC(=O)[C@@H](CCCNC(=N)N)NC(=O)CCCCCCCNCc1nc2c(sc3ccc(Br)cc32)c(=O)[nH]1)C(=O)N[C@H](CCCCN)C(N)=O` [Compound 2, BBTP-Aoc-(D-Arg)2-Gly-D-Arg-D-Lys-NH2], in that order: 102 ± 14%, 99 ± 5%, 110 ± 12%, 98 ± 5% and 7 ± 1%.
For `N=C(N)NCCC[C@@H](NC(=O)CNC(=O)[C@@H](CCCNC(=N)N)NC(=O)[C@@H](CCCNC(=N)N)NC(=O)Cn1cc(CNCc2nc3c(sc4ccc(Br)cc43)c(=O)[nH]2)nn1)C(=O)N[C@H](CCCCN)C(N)=O` [Compound 3, BBTP-Amt-(D-Arg)2-Gly-D-Arg-D-Lys-NH2], in that order: 74 ± 6%, 110 ± 1%, 119 ± 1%, 113 ± 13% and 15 ± 1%.
For `N=C(N)NCCC[C@@H](NC(=O)CCCCCNC(=O)Cn1cnc2c(I)c(I)c(I)c(I)c21)C(=O)N[C@H](CCCNC(=N)N)C(=O)N[C@H](CCCNC(=N)N)C(=O)N[C@H](CCCNC(=N)N)C(=O)N[C@H](CCCNC(=N)N)C(=O)N[C@H](CCCNC(=N)N)C(=O)N[C@H](CCCCN)C(N)=O` [ARC-3125, TIBI-CH2-C(=O)-Ahx-(D-Arg)6-D-Lys-NH2], the remaining activity at 1 µM with NUAK1 turned out to be 7 ± 15%; with IRR, 20 ± 34%; in the data set with Src, 153 ± 22%; with EIF2AK3 it was 11 ± 11%; with PIM2, 0%.
For `N=C(N)NCCC[C@@H](NC(=O)CNC(=O)[C@@H](CCCNC(=N)N)NC(=O)[C@@H](CCCNC(=N)N)NC(=O)CCCCCCCNCc1nc2c(sc3cc(Br)cnc32)c(=O)[nH]1)C(=O)N[C@H](CCCCN)C(N)=O` [Compound 1, BPTP-Aoc-(D-Arg)2-Gly-D-Arg-D-Lys-NH2], in that order: 95 ± 14%, 99 ± 2%, 97 ± 3%, 94 ± 7% and 72%.
